According to patent publication US20160244511A1 (published 2016):
Where a chain is given by its changes, count along the chain named.

T1: HlgB, F-component of gamma-hemolysin, USA300 TCH1516 strain (Staphylococcus aureus USA300 TCH1516, UniProt P0A075 26-325)
T1 sequence: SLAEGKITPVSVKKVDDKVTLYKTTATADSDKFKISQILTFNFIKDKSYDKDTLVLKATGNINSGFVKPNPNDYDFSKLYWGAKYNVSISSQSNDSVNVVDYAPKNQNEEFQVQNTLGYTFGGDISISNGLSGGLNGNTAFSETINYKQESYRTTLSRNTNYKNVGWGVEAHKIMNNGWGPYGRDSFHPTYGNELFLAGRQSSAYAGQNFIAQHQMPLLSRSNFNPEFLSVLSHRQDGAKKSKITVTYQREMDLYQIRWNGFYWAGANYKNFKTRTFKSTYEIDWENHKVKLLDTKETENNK

T2: LukF, F-component of Panton Valentine leukocidin (LukSF), USA300 TCH1516 strain (Staphylococcus aureus USA300 TCH1516)
T2 chain: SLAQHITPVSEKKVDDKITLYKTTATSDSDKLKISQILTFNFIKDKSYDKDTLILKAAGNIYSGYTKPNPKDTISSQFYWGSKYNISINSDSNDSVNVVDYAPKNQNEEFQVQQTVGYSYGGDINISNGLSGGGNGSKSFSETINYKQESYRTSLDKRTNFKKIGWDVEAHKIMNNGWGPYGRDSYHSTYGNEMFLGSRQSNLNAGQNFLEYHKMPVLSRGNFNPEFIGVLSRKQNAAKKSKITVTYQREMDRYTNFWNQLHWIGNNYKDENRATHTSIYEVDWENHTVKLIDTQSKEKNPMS

T3: LukD, F-component of LukED, USA300 TCH1516 strain (Staphylococcus aureus USA300 TCH1516, UniProt Q2FXB1 27-327)
T3 sequence: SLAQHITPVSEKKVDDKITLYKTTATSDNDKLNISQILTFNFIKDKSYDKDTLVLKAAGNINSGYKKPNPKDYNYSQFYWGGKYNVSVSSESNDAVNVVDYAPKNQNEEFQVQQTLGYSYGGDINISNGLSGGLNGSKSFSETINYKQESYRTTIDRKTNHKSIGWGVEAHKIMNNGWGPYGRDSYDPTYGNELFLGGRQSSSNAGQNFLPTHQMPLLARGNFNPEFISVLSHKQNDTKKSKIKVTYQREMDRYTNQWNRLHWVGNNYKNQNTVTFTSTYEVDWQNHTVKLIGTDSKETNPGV

B1: AB-28 Fab fragment (Fab, V domains shown)
VH: QVQLQESGPGLVKPSETLSLTCAVSGYSISSGMGWGWIRQPPGKGLEWIGSIDQRGSTYYNPSLKSRVTISVDTSKNQFSLKLSSVTAADTAVYYCARDAGHGVDMDVWGKGTTVTVSS
VL: DIQMTQSPSSVSASVGDRVTITCRASQGISRWLAWYQQKPGKAPKLLIYAASSLQSGVPSRFSGSGSGTDFTLTISSLQPEDFATYYCQQGYVFPLTFGGGTKVEIK
B2: AB-28-3 Fab (Fab, V domains shown)
VH: B1 VH with I52V, V104A
VL: B1 VL
B3: AB-28-6 Fab (Fab, V domains shown)
VH: B1 VH with K13R, G103A
VL: B1 VL
B4: AB-28-7 Fab (Fab, V domains shown)
VH: B1 VH with G36D, L46R, K65E, S66G, V68A
VL: B1 VL
B5: AB-28-9 Fab (Fab, V domains shown)
VH: B1 VH with Q1E, K13R, G103A
VL: B1 VL
B6: AB-28-8 Fab (Fab, V domains shown)
VH: B1 VH with G36D, S63P, K65E
VL: B1 VL

Key:
[1] = target: T1, HlgB, F-component of gamma-hemolysin, …; assay: MSD solution equilibrium, Fab with biotinylated antigen (or ForteBio)
[2] = target: T2, LukF, F-component of Panton Valentine …; assay: as above
[3] = target: T3, LukD, F-component of LukED, USA300 …; assay: as above
[4] = target: T1, HlgB, F-component of gamma-hemolysin, …; assay: MSD solution equilibrium, Fab with biotinylated antigen
[5] = target: T2, LukF, F-component of Panton Valentine …; assay: as above
[6] = target: T3, LukD, F-component of LukED, USA300 …; assay: as above

| Binder | Kd [5] [nM] | Kd [6] [nM] | further results |
| --- | --- | --- | --- |
| B1 |  |  | Kd [1]: < 0.01 nM; Kd [2]: > 0.1 nM; Kd [3]: > 1 nM |
| B2 |  |  | Kd [4]: < 0.02 nM |
| B3 | < 0.055 | < 0.8 |  |
| B4 | < 0.055 | < 0.8 |  |
| B5 | < 0.055 | < 0.8 |  |
| B6 | < 0.055 | < 0.8 |  |
